Laboratory results published in PMC5126634.

How the values were obtained:
[1] = tested on: His51; assay: kinetics; conditions: 37 °C, multicomponent buffer: 100 mM acetate, 100 mM MES, 100 mM HEPES, 100 mM CHES, 100 mM CAPS
[2] = biological target: His51 (UniProt position 1526, FHTMWHVTRGA); assay: kinetics; conditions: 37 °C, multicomponent buffer: 100 mM acetate, 100 mM MES, 100 mM HEPES, 100 mM CHES, 100 mM CAPS
[3] = enzyme-substrate complex (pKes1, from kcat)
[4] = free enzyme (pKe1, from kcat/Km)

Row | Substance | pKa [1, 3] | pKa [1, 4] | pKa [2, 3] | pKa [2, 4]
1 | Dengue virus 2 NS2B-NS3 protease, unlinked complex (NS2BH + NS3pro) (Dengue virus 2 (DENV2)) | 8.2 ± 0.1 | 8.7 ± 0.7 |  | 
2 | Dengue virus 2 NS2B-NS3 protease, glycine-linked (NS2BH-gly-NS3pro) (Dengue virus 2 (DENV2)) |  |  | 8.6 ± 0.4 | 8.1 ± 0.3
